In patent US20190307687A1:
Square brackets hold non-standard residues; d marks the D form.

Biological target: αvβ3 integrin on TNF-α-treated bovine aortic endothelial cells (BAEC) (bovine) (UniProt P80746)
Assay: attachment under flow in a microfluidic device coated with TNF-α-treated BAEC cells; reference RGD-targeted nanospheres

fold higher attachment compared to RGD-targeted nanospheres (after 5 min): 9.5 fold
fold higher attachment compared to RGD-targeted nanospheres (after 20 min): 2.9 fold
B1: RGD-NC nanoparticle (integrin-targeted nanochain of four iron oxide nanospheres carrying c(RGDfC) peptides on PEG) (peptide)
peptide: cyclo(RGD[dF]C)
modifications: not fully specified (residue 5); printed as cyclo (Arg-Gly-Asp-D-Phe-Cys); also: nanochain also tagged with VivoTag 680
